T1: NgR (Homo sapiens, UniProt Q9BZR6)
T1 construct: expressed in transfected cells; host or cells: COS cells
T1 sequence (Q9BZR6 27-473): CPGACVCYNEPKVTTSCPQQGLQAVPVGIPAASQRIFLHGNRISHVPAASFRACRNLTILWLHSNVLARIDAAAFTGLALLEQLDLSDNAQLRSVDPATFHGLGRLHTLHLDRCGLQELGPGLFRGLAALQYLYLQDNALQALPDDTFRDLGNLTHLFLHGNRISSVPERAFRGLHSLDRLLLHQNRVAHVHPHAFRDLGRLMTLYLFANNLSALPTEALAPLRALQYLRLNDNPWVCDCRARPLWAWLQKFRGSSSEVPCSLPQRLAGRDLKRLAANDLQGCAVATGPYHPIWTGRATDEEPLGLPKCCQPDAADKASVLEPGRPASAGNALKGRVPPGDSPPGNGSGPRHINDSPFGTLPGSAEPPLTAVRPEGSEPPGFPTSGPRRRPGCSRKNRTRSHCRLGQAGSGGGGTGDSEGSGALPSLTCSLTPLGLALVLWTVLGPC


What was measured:
Aβ peptides = test: Aβ peptide binding to wells coated with purified sNgR-Fc
Experimental: We analyzed whether Aβ (1-28) binding competed for NgR binding with other known ligands for NgR by allowing 250 nM soluble AP-Aβ(1-28) or AP-Nogo (1-33) to bind to wells coated with purified sNgR310-Fc in the presence of various concentrations of competing free Aβ. […] We observed that the Aβ peptides bind to both sNgR310-Fc and sNgR344-Fc. […] However, Aβ(1-28) displaced Aβ-AP binding but not AP-Nogo-66 (1-33) or AP-OMgp binding in competition assays. The Aβ peptide may begin to displace AP-MAG very slightly at high concentrations in our experiments. Thus, the Aβ binding site on NgR appears largely distinct from that for the myelin ligands NogoA, OMgp and MAG. Consistent with this, the presence of Aβ had little effect on myelin or Nogo-66 inhibition of neurite outgrowth.

[1] = test system: APPsw/PSEN-1(DeltaE9) double transgenic mice; test: Intracerebroventricular infusion into APPsw/PSEN-1(DeltaE9) double transgenic mice; assay type: in vivo; conditions: 2.5 mg per mouse over 56 days
Excerpt: To examine the role of the NgR/APP/AB interactions in vivo, sNgR310-Fc (a NgR antagonist; see International Patent Application PCT/US03/25004) was infused into APPsw/PSEN-1(DeltaE9) double transgenic mice (from Jackson Laboratories). The sNgR310-Fc protein contains the entire LRR ligand-binding of the NgR fused to the Fc portion of IgG. To administer sNgR310-Fc protein, 5-month-old mice were anesthetized with isoflurane/oxygen and a burr hole was drilled in the skull. A cannula (ALZET brain infusion kit II, Alza Scientific Products, Palo Alto, Calif.) was introduced into the right lateral ventricle at stereotaxic coordinates 0.6 mm posterior and 1.2 mm lateral to bregma and 4.0 mm deep to the pial surface. The cannula was held in place with cyanoacrylate and the catheter was attached to a subcutaneous osmotic minipump (Alzet 2ML4). The pump delivered 2.5 μl/hr for 28 days of a 1.2 mg/ml solution of sNgR310-Fc or rat IgG in PBS (control mice received rat IgG since both the NgR and the Pc moiety were of rat origin). Pumps were replaced after 28 days and connected to the same cannula. The total dose of protein infused was 2.5 mg per mouse over 56 days. At the end of this period, mice were sacrificed and brain AB levels were measured using an ELISA kit from Biosource International according to the manufacturer's instructions. Aβ deposition into amyloid plaques was assessed by anti-Aβ immunohistochemistry as follows. Aβ plaques in sagittal sections of 4% paraformaldehyde fixed brain were detected immunohistologically with anti-Aβ(1-17) 6E10 antibody after 0.1 M formic acid treatment for antigen recovery. Plaque area was quantitated using NIH Image as a percentage of cerebral cortical area for 3 sections from each animal.

NgR = biological target: T1, NgR; test: AP-Aβ(1-28) fusion protein binding to NgR-expressing COS cells; conditions: not to vector-transfected COS cells
Excerpt: We then investigated whether the Aβ region of APP is involved in its interaction with NgR—including whether the fibrillogenic Aβ42-3 peptide binds NgR. We created two fusion protein constructs containing alkaline phosphatase (AP) and the hydrophilic region of Aβ (amino acids 1-28) by fusing the coding sequence in frame with the signal sequence-6×His-placental alkaline phosphatase (AP) sequence of the vector pAP-6 (Nakamura et al., Neuron 2: 1093-1100, 1988). The AP-Aβ and Aβ-AP proteins both bound to NgR-expressing COS cells but not to vector-transfected COS cells. This binding was saturable with an apparent Kd of 60 nM. The interaction also was detected using purified Biotin-Aβ(1-40) in an ELISA-type assay with immobilized NgR.

binding of Aβ peptides (Aβ peptides) | binding to NgR-expressing COS cells (NgR) | Molecule | deposition of immunoreactive Aβ into plaque ([1]; right lateral ventricle, vs rat IgG, anti-Aβ immunohistochemistry) | decrease of total level of Aβ(1-40) in the brain ([1]; right lateral ventricle, ELISA) | decrease of total level of Aβ(1-42) in the brain ([1]; right lateral ventricle, ELISA) | sAPPα levels in the brains ([1]; immunoprecipitation and immunoblot)
bind | – | sNgR310-Fc: contains the entire LRR ligand-binding of the NgR fused to the Fc portion of IgG; NgR and Fc of rat origin (protein, left off: a dimerising Fc or GST, NgR and Fc of rat origin) CPGACVCYNEPKVTTSRPQQGLQAVPAGIPASSQRIFLHGNRISYVPAASFQSCRNLTILWLHSNALAGIDAAAFTGLTLLEQLDLSDNAQLRVVDPTTFRGLGHLHTLHLDRCGLQELGPGLFRGLAALQYLYLQDNNLQALPDNTFRDLGNLTHLFLHGNRIPSVPEHAFRGLHSLDRLLLHQNHVARVHPHAFRDLGRLMTLYLFANNLSMLPAEVLVPLRSLQYLRLNDNPWVCDCRARPLWAWLQKFRGSSSGVPSNLPQRLAGRDLKRLATSDLEGCA | significantly reduced | 50% | 50% | decreased
bind | – | sNgR344-Fc: rat soluble NgR 344 Fc fusion (protein, left off: a dimerising Fc or GST, rat soluble NgR 344 Fc fusion) CPGACVCYNEPKVTTSRPQQGLQAVPAGIPASSQRIFLHGNRISYVPAASFQSCRNLTILWLHSNALAGIDAAAFTGLTLLEQLDLSDNAQLRVVDPTTFRGLGHLHTLHLDRCGLQELGPGLFRGLAALQYLYLQDNNLQALPDNTFRDLGNLTHLFLHGNRIPSVPEHAFRGLHSLDRLLLHQNHVARVHPHAFRDLGRLMTLYLFANNLSMLPAEVLVPLRSLQYLRLNDNPWVCDCRARPLWAWLQKFRGSSSGVPSNLPQRLAGRDLKRLATSDLEGCAVASGPFRPFQTNQLTDEELLGLPKCCQPDAADKA | – | – | – | –
– | bound | AP-Aβ: fusion protein of alkaline phosphatase (AP) and the hydrophilic region of Aβ (amino acids 1-28) (protein) HHHHHHIIPVEEENPDFWNREAAEALGAAKKLQPAQTAAKNLIIFLGDGMGVSTVTAARILKGQKKDKLGPEIPLAMDRFPYVALSKTYNVDKHVPDSGATATAYLCGVKGNFQTIGLSAAARFNQCNTTRGNEVISVMNRAKKAGKSVGVVTTTRVQHASPAGTYAHTVNRNWYSDADVPASARQEGCQDIATQLISNMDIDVILGGGRKYMFRMGTPDPEYPDDYSQGGTRLDGKNLVQEWLAKRQGARYVWNRTELMQASLDPSVTHLMGLFEPGDMKYEIHRDSTLDPSLMEMTEAALRLLSRNPRGFFLFVEGGRIDHGHHESRAYRALTETIMFDDAIERAGQLTSEEDTLSLVTADHSHVFSFGGYPLRGSSIFGLAPGKARDRKAYTVLLYGNGPGYVLKDGARPDVTESESGSPEYRQQSAVPLDEETHAGEDVAVFARGPQAHLVHGVQEQTFIAHVMAFAACLEPYTACDLAPPAGTTDAAHPGDAEFRHDSGYEVHHQKLVFFAEDVGSNK | – | – | – | –

Source: patent US20070065429A1, “Nogo-receptor antagonists for the treatment of conditions involving amyloid plaques” (Biogen Idec MA Inc., priority 2003, published 2007)
